Reference: PMC4104028 (2014)

B1: FLAG-Atg16L1 full-length (FL) [mouse] / GFP-WIPI2b [not stated] (parent complex)
chain 1: MSSGLRAADFPRWKRHIAEELRRRDRLQRQAFEEIILQYTKLLEKSDLHSVLTQKLQAEKHDMPNRHEISPGHDGAWNDSQLQEMAQLRIKHQEELTELHKKRGELAQLVIDLNNQMQQKDKEIQMNEAKISEYLQTISDLETNCLDLRTKLQDLEVANQTLKDEYDALQITFTALEEKLRKTTEENQELVTRWMAEKAQEANRLNAENEKDSRRRQARLQKELAEAAKEPLPVEQDDDIEVIVDETSDHTEETSPVRAVSRAATKRLSQPAGGLLDSITNIFGLSESPLLGHHSSDAARRRSVSSIPVPQDIMDTHPASGKDVRVPTTASYVFDAHDGEVNAVQFSPGSRLLATGGMDRRVKLWEAFGDKCEFKGSLSGSNAGITSIEFDSAGAYLLAASNDFASRIWTVDDYRLRHTLTGHSGKVLSAKFLLDNARIVSGSHDRTLKLWDLRSKVCIKTVFAGSSCNDIVCTEQCVMSGHFDKKIRFWDIRSESVVREMELLGKITALDLNPERTELLSCSRDDLLKVIDLRTNAVKQTFSAPGFKCGSDWTRVVFSPDGSYVAAGSAEGSLYVWSVLTGKVEKVLSKQHSSSINAVAWAPSGLHVVSVDKGSRAVLWAQP
chain 2: MNLASQSGEAGAGQLLFANFNQDNTSLAVGSKSGYKFFSLSSVDKLEQIYECTDTEDVCIVERLFSSSLVAIVSLKAPRKLKVCHFKKGTEICNYSYSNTILAVKLNRQRLIVCLEESLYIHNIRDMKVLHTIRETPPNPAGLCALSINNDNCYLAYPGSATIGEVQVFDTINLRAANMIPAHDSPLAALAFDASGTKLATASEKGTVIRVFSIPEGQKLFEFRRGVKRCVSICSLAFSMDGMFLSASSNTETVHIFKLETVKEKPPEEPTTWTGYFGKVLMASTSYLPSQVTEMFNQGRAFATVRLPFCGHKNICSLATIQKIPRLLVGAADGYLYMYNLDPQEGGECALMKQHRLDGSLETTNEILDSASHDCPLVTQTYGAAAGKGTYVPSSPTRLAYTDDLGAVGGACLEDEASALRLDEDSEHPPMILRTD
B2: GFP-WIPI2b [not stated] / FLAG-Atg16L1 full-length (FL) [mouse] (parent complex)
chain 1: B1 chain 2
chain 2: B1 chain 1
B3: FLAG-Atg16L1 full-length (FL) [mouse] / endogenous FIP200 (HEK293A) [human (endogenous in HEK293A)] (parent complex)
chain 1: B1 chain 1
chain 2: MKLYVFLVNTGTTLTFDTELTVQTVADLKHAIQSKYKIAIQHQVLVVNGGECMAADRRVCTYSAGTDTNPIFLFNKEMILCDRPPAIPKTTFSTENDMEIKVEESLMMPAVFHTVASRTQLALEMYEVAKKLCSFCEGLVHDEHLQHQGWAAIMANLEDCSNSYQKLLFKFESIYSNYLQSIEDIKLKLTHLGTAVSVMAKIPLLECLTRHSYRECLGRLDSLPEHEDSEKAEMKRSTELVLSPDMPRTTNESLLTSFPKSVEHVSPDTADAESGKEIRESCQSTVHQQDETTIDTKDGDLPFFNVSLLDWINVQDRPNDVESLVRKCFDSMSRLDPRIIRPFIAECRQTIAKLDNQNMKAIKGLEDRLYALDQMIASCGRLVNEQKELAQGFLANQKRAENLKDASVLPDLCLSHANQLMIMLQNHRKLLDIKQKCTTAKQELANNLHVRLKWCCFVMLHADQDGEKLQALLRLVIELLERVKIVEALSTVPQMYCLAVVEVVRRKMFIKHYREWAGALVKDGKRLYEAEKSKRESFGKLFRKSFLRNRLFRGLDSWPPSFCTQKPRKFDCELPDISLKDLQFLQSFCPSEVQPFLRVPLLCDFEPLHQHVLALHNLVKAAQSLDEMSQTITDLLSEQKASVSQTSPQSASSPRMESTAGITTTTSPRTPPPLTVQDPLCPAVCPLEELSPDSIDAHTFDFETIPHPNIEQTIHQVSLDLDSLAESPESDFMSAVNEFVIEENLSSPNPISDPQSPEMMVESLYSSVINAIDSRRMQDTNVCGKEDFGDHTSLNVQLERCRVVAQDSHFSIQTIKEDLCHFRTFVQKEQCDFSNSLKCTAVEIRNIIEKVKCSLEITLKEKHQKELLSLKNEYEGKLDGLIKETEENENKIKKLKGELVCLEEVLQNKDNEFALVKHEKEAVICLQNEKDQKLLEMENIMHSQNCEIKELKQSREIVLEDLKKLHVENDEKLQLLRAELQSLEQSHLKELEDTLQVRHIQEFEKVMTDHRVSLEELKKENQQIINQIQESHAEIIQEKEKQLQELKLKVSDLSDTRCKLEVELALKEAETDEIKILLEESRAQQKETLKSLLEQETENLRTEISKLNQKIQDNNENYQVGLAELRTLMTIEKDQCISELISRHEEESNILKAELNKVTSLHNQAFEIEKNLKEQIIELQSKLDSELSALERQKDEKITQQEEKYEAIIQNLEKDRQKLVSSQEQDREQLIQKLNCEKDEAIQTALKEFKLEREVVEKELLEKVKHLENQIAKSPAIDSTRGDSSSLVAELQEKLQEEKAKFLEQLEEQEKRKNEEMQNVRTSLIAEQQTNFNTVLTREKMRKENIINDLSDKLKSTMQQQERDKDLIESLSEDRARLLEEKKKLEEEVSKLRSSSFVPSPYVATAPELYGACAPELPGESDRSAVETADEGRVDSAMETSMMSVQENIHMLSEEKQRIMLLERTLQLKEEENKRLNQRLMSQSMSSVSSRHSEKIAIRDFQVGDLVLIILDERHDNYVLFTVSPTLYFLHSESLPALDLKPGEGASGASRRPWVLGKVMEKEYCQAKKAQNRFKVPLGTKFYRVKAVSWNKKV
B4: GFP-WIPI2b [not stated] / FLAG-Atg16L1 full-length (FL) [mouse] (parent complex)
chain 1: B1 chain 2
chain 2: B1 chain 1

Variants of: B1
Assay: GFP-Trap co-immunoprecipitation from mixed lysates, immunoblot quantification; parent: 1; read off a plot

| Variant | ratio to parent |
| --- | --- |
| chain 1 E226R | ~0.02 |
| chain 1 D238R | ~1.3 |
| chain 1 E208R | ~0.67 |
| chain 1 D237R | ~1.7 |
| chain 1 D212R | ~0.63 |
| chain 1 D239R | ~0.8 |
| chain 1 E235R | ~1.2 |
| chain 1 E230R | ~0.02 |
| chain 1 E241R | ~1.1 |

Variants of: B2
Assay: GFP-Trap co-immunoprecipitation from mixed lysates, immunoblot quantification; parent: 2.5; read off a plot

| Variant | response |
| --- | --- |
| chain 1 R108E | ~0.04 |
| chain 1 R108E, chain 1 R125E | ~0.03 |
| chain 1 R125E | ~1.6 |

Variants of: B3
Assay: FLAG immunoprecipitation, immunoblot quantification; parent: 1; read off a plot

| Variant | ratio to parent |
| --- | --- |
| chain 1 E235R | ~0.7 |
| chain 1 D238R | ~0.42 |
| chain 1 E241R | ~0.25 |
| chain 1 E226R | ~2.1 |
| chain 1 E230R | ~2.9 |
| chain 1 E208R | ~1.3 |
| chain 1 D239R | ~0.3 |
| chain 1 D212R | ~1.2 |
| chain 1 D237R | ~0.45 |

Variants of: B4
Assay: GFP-Trap co-immunoprecipitation from mixed lysates, immunoblot quantification; parent: 2.5; read off a plot

| Variant | response |
| --- | --- |
| chain 2 E226R, chain 2 E230R | ~0.02 |
| chain 2 E226R | ~0.33 |
| chain 2 E230R | ~0.62 |
